# US20250179161A1 (OTHAIR PROTHENA, published 2025)
# Substitutions are numbered along the chain they refer to. Several values for one entry are separate records, joined by “and”; a condition that tells them apart may be missing. Equal values may be shown once.
# B1: h2831 (antibody, V domains shown)
# VH: EVQLLESGGGLVQPGGSLRLSCAASGFTFSNFGMSWVRQAPGKGLEWVASVRSGSGRTYYSDNVKGRFTISRDNSKNTLYLQMNSLRAEDTAVYYCVRYDHYSGTSDYWGQGTLVTVSS
# VL: DVVMTQSPLSLPVTLGEPASISCKSSQSLLDYDGKTYLNWLLQKPGQSPQRLIYRVTNRDTGVPDRFSGSGSGTDFTLKISRVEAEDVGVYYCWQGTHFPRSFGQGTKVEIK
# notes: Humanized IgG
# B2: h2731 (antibody, V domains shown)
# VH: B1 VH with F32Y, V51I, T105S
# VL: B1 VL
# notes: Humanized IgG
# B3: h2726 (antibody, V domains shown)
# VH: B1 VH with F32Y, V51I, T105S
# VL: B1 VL with L15P, R55K, T57S, T61S, S102T
# notes: Humanized IgG, detected with anti-human IgG
# B4: h2931 (antibody, V domains shown)
# VH: B1 VH with S103T
# VL: B1 VL
# notes: Humanized IgG
# B5: h2931 Fab (Fab, V domains shown)
# VH: B1 VH with S103T
# VL: B1 VL
# B6: bapineuzumab Fab (Fab, V domains shown)
# VH: B1 VH with F32Y, V51I, S55G, T105S
# VL: B1 VL with L15P, Y32S, R55L, T57S, N58K, R59L, T61S, S102T
# notes: also called hBP
# B7: h2726 Fab (Fab, V domains shown)
# VH: B1 VH with F32Y, V51I, T105S
# VL: B1 VL with L15P, R55K, T57S, T61S, S102T
# B8: h2731 Fab (Fab, V domains shown)
# VH: B1 VH with F32Y, V51I, T105S
# VL: B1 VL
# B9: h2831 Fab (Fab, V domains shown)
# VH: B1 VH
# VL: B1 VL
# B10: h2826 (antibody, V domains shown)
# VH: B1 VH
# VL: B1 VL with L15P, R55K, T57S, T61S, S102T
# B11: h49k3G (antibody, V domains shown)
# VH: B1 VH with S55G
# VL: B1 VL with Y32S, R55K, T57S, T61S, S102T
# notes: also called h49_hum3; 49human3
# B12: h2927 (antibody, V domains shown)
# VH: B1 VH with S103T
# VL: B1 VL with L15P, R55K, T57S, T61S
# B13: h2926 (antibody, V domains shown)
# VH: B1 VH with S103T
# VL: B1 VL with L15P, R55K, T57S, T61S, S102T
# B14: h4917G (antibody, V domains shown)
# VH: B1 VH with S55G
# VL: B1 VL with Y32S, R55K, D60E, T61S
# notes: also called h49_VK17
# B15: h3818G (antibody, V domains shown)
# VH: B1 VH with S30A, F32Y, S55G, G56S, T105S
# VL: B1 VL with L30M, Y32T, R55K, T57S, D60E, T61S, S102T
# B16: h2727 (antibody, V domains shown)
# VH: B1 VH with F32Y, V51I, T105S
# VL: B1 VL with L15P, R55K, T57S, T61S
# B17: h4921G (antibody, V domains shown)
# VH: B1 VH with S55G
# VL: B1 VL with Y32S, S102T
# B18: h2929 (antibody, V domains shown)
# VH: B1 VH with S103T
# VL: B1 VL with L15P, K24R, L30V, K44R, R55K, T57S, T61S, T97S, F103Y
# B19: 4918 (antibody, V domains shown)
# VH: B1 VH with S55G
# VL: B1 VL with L30M, Y32T, R55K, T57S, D60E, T61S, S102T
# notes: It is not in the first reading's list; also called h4918G; h4918
# Molecular target: T1, Amyloid Beta (Aβ) 1-42 (human)
# T1 construct: The same peptide was used in several aggregation states: fibrils, a heterogeneous aggregate mixture, and soluble oligomers or aggregates; also called Aβ42; Aβ 42
# T1 sequence (peptide, as listed by the source): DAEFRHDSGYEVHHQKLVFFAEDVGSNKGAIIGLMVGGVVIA
# Assay: direct ELISA on plate-coated Aβ42 fibrils (FIG. 21); this end is tied to h2831 by the EC50 values of Table 7
row,Binder,fold lower estimated EC50 relative to aducanumab [fold]
1,B1,15 to 20

# Molecular target: T1, Amyloid Beta (Aβ) 1-42
# Assay: direct ELISA on plate-coated Aβ42 fibrils (FIG. 21)
row,Binder,fold increase in assay signal (OD490) relative to aducanumab [fold]
1,B2,3
2,B3,3
3,B4,3
4,B1,3

# Molecular target: T1, Amyloid Beta (Aβ) 1-42
# Assay: SPR (BIAcore T200), Aβ1-42 fibrils immobilized on CM5, Fab as analyte, global 1:1 fit; apparent KD
row,Binder,Kd [nM]
1,B5,1.62
2,B6,5.34
3,B7,2.01
4,B8,2.24
5,B9,2.31

# Molecular target: T1, Amyloid Beta (Aβ) 1-42
# Assay: direct ELISA on fibrillar Aβ1-42
row,Binder,EC50
1,B2,0.0081 µg/mL and 0.054 nM

# Molecular target: T1, Amyloid Beta (Aβ) 1-42
# Assay: SPR on Aβ1-42 fibrils; this end is tied to h2726 by the KD values of Table 6
row,Binder,fold greater avidity (apparent KD) than aducanumab [fold]
1,B3,5 to 11

# Molecular target: T1, Amyloid Beta (Aβ) 1-42
# Assay: direct ELISA on plate-coated Aβ42 fibrils (FIG. 21); this end is tied to h2726 by the EC50 values of Table 7
row,Binder,fold lower estimated EC50 relative to aducanumab [fold]
1,B3,15 to 20

# Molecular target: T1, Amyloid Beta (Aβ) 1-42
# Assay: direct ELISA, antibody titrated on 2.5 ug/ml plate-coated fibril Abeta; the row head of the drawn table reads 'IC50', the note below it says EC50; no unit in the table, x axis 'log ng/ml antibody' [left panel]
row,Binder,EC50 [µg/mL]
1,B2,0.0387
2,B3,0.0403
3,B4,0.0435
4,B1,0.0462

# Molecular target: T1, Amyloid Beta (Aβ) 1-42
# Assay: competition ELISA, plate coated with fibril Aβ42, competitor hBP-biotin; IC50 of test divided by IC50 of hBP
row,Binder,IC50 ratio (test:hBP)
1,B2,0.61
2,B10,1.1
3,B11,2.16
4,B12,1.6
5,B13,0.99
6,B14,2.69
7,B3,0.68
8,B15,1.18
9,B16,3.06
10,B17,1.01
11,B18,1.16
12,B4,0.59
13,B1,0.77

# Molecular target: T1, Amyloid Beta (Aβ) 1-42
# Assay: SPR on Aβ1-42 fibrils; this end is tied to h2831 by the KD values of Table 6
row,Binder,fold greater avidity (apparent KD) than aducanumab [fold]
1,B1,5 to 11

# Molecular target: T1, Amyloid Beta (Aβ) 1-42
# Assay: SPR (BIAcore T200), Aβ1-42 fibrils immobilized on CM5, Fab as analyte, global 1:1 fit
Binder,koff [s⁻¹],kon [M⁻¹ s⁻¹]
B5,0.000199,123000
B7,0.000259,129000
B8,0.000289,129000
B9,0.000248,108000

# Molecular target: T1, Amyloid Beta (Aβ) 1-42
# Assay: cell-based or functional assay
Binder,"IC50 of Abeta spots per neuron (% Abeta control); the table gives no unit, the x axis is 'mAb (µg/mL)' [µg/mL]","Total Area (under the curve of Abeta spots per neuron, % Abeta control)"
B2,0.47,7520
B3,1.67,9070
B4,0.627,8480
B1,0.924,6500

# Molecular target: T1, Amyloid Beta (Aβ) 1-42
# Assay: SPR (BIAcore T200), Aβ1-42 fibrils immobilized on CM5, antibody as analyte, global 1:1 fit
Binder,koff [s⁻¹],kon [M⁻¹ s⁻¹]
B2,2.62e-05,372000
B3,2.12e-05,393000
B4,2.05e-05,335000
B1,2.94e-05,265000

# Molecular target: T1, Amyloid Beta (Aβ) 1-42
# Assay: direct ELISA, fibril aBeta plate coat titrated, antibody held constant at 2 ug/ml; no unit in the table, x axis 'log ng/ml Abeta' [right panel]
row,Binder,IC50 (half-maximal fibril Abeta coating concentration at constant antibody) [µg/mL]
1,B2,0.44
2,B3,0.387
3,B4,0.335
4,B1,0.412

# Molecular target: T1, Amyloid Beta (Aβ) 1-42
# Assay: cell-based or functional assay
# Remark: another data set of the same source
row,Binder,blockade of binding of soluble Aβ to rat hippocampal synapses at 1:50 molar mAb:Aβ42 ratio [%]
1,B2,> 90

# Molecular target: T1, Amyloid Beta (Aβ) 1-42
# Assay: competition ELISA on plate-coated Aβ42 fibrils; competitor: biotinylated hBP (bapineuzumab)
row,Binder,binding result
1,B19,binds

# Molecular target: T1, Amyloid Beta (Aβ) 1-42
# Assay: SPR (BIAcore T200), Aβ1-42 fibrils immobilized on CM5, antibody as analyte, global 1:1 fit; apparent KD
row,Binder,Kd [nM]
1,B2,0.0704
2,B3,0.054
3,B4,0.0612
4,B1,0.111
